# T1: Flag tagged recombinant DLL3 (Adipogen) (Homo sapiens (Human), UniProt Q9NYJ7 27-492)
# T1 construct: Bought reagent; also called Flag-DLL3
# T1 sequence: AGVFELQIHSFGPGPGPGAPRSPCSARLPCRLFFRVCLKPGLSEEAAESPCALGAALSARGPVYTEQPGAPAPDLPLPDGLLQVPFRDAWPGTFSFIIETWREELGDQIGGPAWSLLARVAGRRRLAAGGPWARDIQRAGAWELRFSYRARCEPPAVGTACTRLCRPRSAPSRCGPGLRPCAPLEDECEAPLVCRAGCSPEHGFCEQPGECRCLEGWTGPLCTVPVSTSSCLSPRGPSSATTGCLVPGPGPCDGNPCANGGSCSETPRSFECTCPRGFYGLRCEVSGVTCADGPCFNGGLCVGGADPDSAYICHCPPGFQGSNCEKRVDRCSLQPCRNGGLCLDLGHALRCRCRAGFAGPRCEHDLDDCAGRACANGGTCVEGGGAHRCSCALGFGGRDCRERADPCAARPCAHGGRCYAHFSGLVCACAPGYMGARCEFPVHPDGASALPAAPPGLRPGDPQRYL
# B1: 3G6 - L2 (other)
# CAR: QVPLVQSGAEVKKPGSSVKVSCKASGGTFSTYSISWVRQAPGQGLEWMGGIIPIFGTTNYAQKFQGRVTITADKSTSTAYMELSSLRSEDTAVYYCARDGEGSYYYYYGMDVWGQGTTVTVSSGGGGSGGGGSGGGGSGGGGSQSVLTQPPSASGTPGQRVTISCSGSSSNIGSNYVYWYQQLPGTAPKLLIYSNNQRPSGVPDRFSGSKSGTSASLAISGLRSEDEADYYCAAWDDSLSGWVFGGGTKLTVLTTTPAPRPPTPAPTIASQPLSLRPEACRPAAGGAVHTRGLDFACDIYIWAPLAGTCGVLLLSLVITKRGRKKLLYIFKQPFMRPVQTTQEEDGCSCRFPEEEEGGCELRVKFSRSADAPAYQQGQNQLYNELNLGRREEYDVLDKRRGRDPEMGGKPRRKNPQEGLYNELQKDKMAEAYSEIGMKGERRRGKGHDGLYQGLSTATKDTYDALHMQALPPR
# notes: also called anti-DLL3 CAR with 3G6-L2 scFv, on primary T cells
# B2: 2404.8E11 (other)
# CAR: QIQLQQSGPGLVKPSQTLSLTCAISGDSVSSNSAVWNWIRQSPSRGLEWLGRTYYRSKWYNDYAVSVKSRITIKPDTAKNQFSLQLNSVTPEDTAVYYFTRGGIVGAPDAFDIWGQGTMVTVSSGGGGSGGGGSGGGGSGGGGSQSVLTQPPSASGTPGQRVTISCSGSSSNIGSDPINWYQQVPGTAPKLLIYSNNQRPSGVPDRFSGSKSGTSASLAISGLQSEDEADYYCAAWDDSLNGYVFGTGTKVTVLTTTPAPRPPTPAPTIASQPLSLRPEACRPAAGGAVHTRGLDFACDIYIWAPLAGTCGVLLLSLVITKRGRKKLLYIFKQPFMRPVQTTQEEDGCSCRFPEEEEGGCELRVKFSRSADAPAYQQGQNQLYNELNLGRREEYDVLDKRRGRDPEMGGKPRRKNPQEGLYNELQKDKMAEAYSEIGMKGERRRGKGHDGLYQGLSTATKDTYDALHMQALPPR
# notes: also called anti-DLL3 CAR with 2404.8E11 scFv, on primary T cells
# B3: 3F9-L (other)
# CAR: QVQLQQSGPGLVKPSQTLSLACAISGDSVSSNSAIWNWIRQSPSRGLEWLGGTYYRSMWYNDYAVSVKSRITINPDTSKNQLSLQLNSVTPEDTAVYYCSRGGIVGVPDAFDIWGQGTMVTVSSGGGGSGGGGSGGGGSGGGGSQSVLTQPPSASGTPGQRVTISCSGSSSNIGSNTANWYQQLPGTAPRLLIYRNNQRPSGVPDRFSGSKSGTSASLAISGLQSEDEADYYCAAWDDSLNGYVFGTGTKVTVLTTTPAPRPPTPAPTIASQPLSLRPEACRPAAGGAVHTRGLDFACDIYIWAPLAGTCGVLLLSLVITKRGRKKLLYIFKQPFMRPVQTTQEEDGCSCRFPEEEEGGCELRVKFSRSADAPAYQQGQNQLYNELNLGRREEYDVLDKRRGRDPEMGGKPRRKNPQEGLYNELQKDKMAEAYSEIGMKGERRRGKGHDGLYQGLSTATKDTYDALHMQALPPR
# notes: also called anti-DLL3 CAR with 3F9-L scFv, on primary T cells
# B4: 6F8 (other)
# CAR: QVQLVQSGAEVKKPGSSVKVSCKASGGTFTNYCISWVRQAPGQGLEWMGGIIPIFGTTNYAQTFQGRVTITADKSTSTAYMELSSLRSEDTAVYYCARDNGDRYYYDMDVWGQGTTVTVSSGGGGSGGGGSGGGGSGGGGSQSVLTQPPSVSAAPGQKVTISCSGSSSNIGNNYVSWYQQLPGTAPKLLIYDNNKRPSGIPDRFSGSKSGTSATLGITGLQTGDEADYYCGTWDSSLSAVVFGGGTKLTVLTTTPAPRPPTPAPTIASQPLSLRPEACRPAAGGAVHTRGLDFACDIYIWAPLAGTCGVLLLSLVITKRGRKKLLYIFKQPFMRPVQTTQEEDGCSCRFPEEEEGGCELRVKFSRSADAPAYQQGQNQLYNELNLGRREEYDVLDKRRGRDPEMGGKPRRKNPQEGLYNELQKDKMAEAYSEIGMKGERRRGKGHDGLYQGLSTATKDTYDALHMQALPPR
# notes: also called anti-DLL3 CAR with 6F8 scFv, on primary T cells
# B5: 4C6 (other)
# CAR: QVQLQESGPGLVKPSETLSLTCTVSGDSISSYYWSWIRQPPGKGLEWIGYMYYSGITNYNPSLKSRVNISLDTSKNQFSLKLGSVTAADTAVYYCARLSVAGFYFDYWGQGTLVTVSSGGGGSGGGGSGGGGSGGGGSEIVLTQSPGTLSLSPGERATLSCRASQSVTRSYLAWYQQKPGQAPRLLIYGASSRATDIPDRFSGSGSGTDFTLTINRLEPEDFAVYYCQQYGTSPLTFGGGTKVEIKTTTPAPRPPTPAPTIASQPLSLRPEACRPAAGGAVHTRGLDFACDIYIWAPLAGTCGVLLLSLVITKRGRKKLLYIFKQPFMRPVQTTQEEDGCSCRFPEEEEGGCELRVKFSRSADAPAYQQGQNQLYNELNLGRREEYDVLDKRRGRDPEMGGKPRRKNPQEGLYNELQKDKMAEAYSEIGMKGERRRGKGHDGLYQGLSTATKDTYDALHMQALPPR
# notes: also called anti-DLL3 CAR with 4C6 scFv, on primary T cells
# B6: 3G6 - L1 (other)
# CAR: QVPLVQSGAEVKKPGSSVKVSCKASGGTFSTYSISWVRQAPGQGLEWMGGIIPIFGTTNYAQKFQGRVTITADKSTSTAYMELSSLRSEDTAVYYCARDGEGSYYYYYGMDVWGQGTTVTVSSGGGGSGGGGSGGGGSGGGGSQSVLTQPPSVSAAPGQKVTISCSGSSSNIGNNYVSWYQQLPGTAPKLLIYDNNKRPSGIPDRFFGSKFGTSATLGITGLQTGDEADYYCGTWDSSLSAVVFGGGTKLTVLTTTPAPRPPTPAPTIASQPLSLRPEACRPAAGGAVHTRGLDFACDIYIWAPLAGTCGVLLLSLVITKRGRKKLLYIFKQPFMRPVQTTQEEDGCSCRFPEEEEGGCELRVKFSRSADAPAYQQGQNQLYNELNLGRREEYDVLDKRRGRDPEMGGKPRRKNPQEGLYNELQKDKMAEAYSEIGMKGERRRGKGHDGLYQGLSTATKDTYDALHMQALPPR
# notes: also called anti-DLL3 CAR with 3G6-L1 scFv, on primary T cells
# B7: 4E6 (other)
# CAR: QVQLQESGPGLVKPSETLSLTCTVSSDSISSYYWSWIRQPPGKGLEWISYIYYSGISNYNPSLKSRVSISVDTSKNQFSLRLSSVTAADTAVYYCARISVAGFFFDNWGQGTLVTVSSGGGGSGGGGSGGGGSGGGGSEIMLTQSPDTLSLSPGERATLSCRASQSVSSSYLAWYQQKPGQAPRLLIYGASSRAAGVPDRFSGSGSGTDFTLTISRLAPEDFVVYYCQQYGISPLTFGGGTKVEIKTTTPAPRPPTPAPTIASQPLSLRPEACRPAAGGAVHTRGLDFACDIYIWAPLAGTCGVLLLSLVITKRGRKKLLYIFKQPFMRPVQTTQEEDGCSCRFPEEEEGGCELRVKFSRSADAPAYQQGQNQLYNELNLGRREEYDVLDKRRGRDPEMGGKPRRKNPQEGLYNELQKDKMAEAYSEIGMKGERRRGKGHDGLYQGLSTATKDTYDALHMQALPPR
# notes: also called anti-DLL3 CAR with 4E6 scFv, on primary T cells
# B8: 10E12 (other)
# CAR: QVQLQESGPGLVKPSETLSLTCTVSGVSISSYYWSWIRQPPGKGLEWIAYIYYSGNTNYSPSLKSRVTISVDTSKDQLSLKLSSVTAADTAVYYCTRGGSGTIDVFDIWGQGTMVAVSSGGGGSGGGGSGGGGSGGGGSQSVLTQPPSVSAAPGQKVTISCSGSSSNIGNNYVSWYQQLPGTAPKLLIYDNNKRPSGIPDRFSGSKSGTSATLGITGLQTGDEADYYCETWDSSLSAVVFGGGTKLTVLTTTPAPRPPTPAPTIASQPLSLRPEACRPAAGGAVHTRGLDFACDIYIWAPLAGTCGVLLLSLVITKRGRKKLLYIFKQPFMRPVQTTQEEDGCSCRFPEEEEGGCELRVKFSRSADAPAYQQGQNQLYNELNLGRREEYDVLDKRRGRDPEMGGKPRRKNPQEGLYNELQKDKMAEAYSEIGMKGERRRGKGHDGLYQGLSTATKDTYDALHMQALPPR
# notes: also called anti-DLL3 CAR with 10E12 scFv, on primary T cells
# B9: 3C3 (other)
# CAR: QVQLVQSGAEVKRPGASVKVSCKASGYTFTSYYIHWVRQAPGQGLEWMGVIVPSGGSISYAQKFQGRVTMTRDTSTNIVYMELSSLRSEDTAVYYCARDRYYGDYYYGLDVWGQGTTVTVSSGGGGSGGGGSGGGGSGGGGSDIQMTQSPSSLSASVGDRVTITCRASQGINNFLAWFQQKPGKAPKSLIYAASSLQSGVPSKFSGSGSGTDFTLTIRSLQPEDFATYYCQHYNSYPITFGQGTRLEIKTTTPAPRPPTPAPTIASQPLSLRPEACRPAAGGAVHTRGLDFACDIYIWAPLAGTCGVLLLSLVITKRGRKKLLYIFKQPFMRPVQTTQEEDGCSCRFPEEEEGGCELRVKFSRSADAPAYQQGQNQLYNELNLGRREEYDVLDKRRGRDPEMGGKPRRKNPQEGLYNELQKDKMAEAYSEIGMKGERRRGKGHDGLYQGLSTATKDTYDALHMQALPPR
# notes: also called anti-DLL3 CAR with 3C3 scFv, on primary T cells
# B10: 11F4 (other)
# CAR: QVHLQESGPGLVKPSETLSLTCTVSGGSISHYYWTWIRQPPGKGLEWIGYIYYSGITNFSPSLKSRVSISVDSSKNQFSLNLNSVTAADTAVYYCAGISLAGFYFDYWVQGTLVTVSSGGGGSGGGGSGGGGSGGGGSEIVLTQSPGTLSLSPGERATLSCRASQSVSRSYLAWYQQKPGQAPRLLIYGASSRATGVPDRFSGSGSGTDFTLTISRLEPEDFAVFYCQQYSISPLTFGGGTKVEIKTTTPAPRPPTPAPTIASQPLSLRPEACRPAAGGAVHTRGLDFACDIYIWAPLAGTCGVLLLSLVITKRGRKKLLYIFKQPFMRPVQTTQEEDGCSCRFPEEEEGGCELRVKFSRSADAPAYQQGQNQLYNELNLGRREEYDVLDKRRGRDPEMGGKPRRKNPQEGLYNELQKDKMAEAYSEIGMKGERRRGKGHDGLYQGLSTATKDTYDALHMQALPPR
# notes: also called anti-DLL3 CAR with 11F4 scFv, on primary T cells
# B11: 3E10 (other)
# CAR: QVQLQESGPGLVKPSETLSLTCNVSDGSISSYYWTWIRQPPGKGLDWIGYIFYSGTTNYNPSLKSRVTISLDTSKNQFSLKLTSMTAADTAVYYCARISEKSFYFDYWGQGTLVTVSSGGGGSGGGGSGGGGSGGGGSQSVLTQPPSASGTPGQRVTISCSGSSSNIGSNYVYWYQQLPGTAPKLLIYSNNQRPSGVPDRFSGSKSGTSASLAISGLRSEDEADYYCAPWDDSLSGRVFGGGTKLTVLTTTPAPRPPTPAPTIASQPLSLRPEACRPAAGGAVHTRGLDFACDIYIWAPLAGTCGVLLLSLVITKRGRKKLLYIFKQPFMRPVQTTQEEDGCSCRFPEEEEGGCELRVKFSRSADAPAYQQGQNQLYNELNLGRREEYDVLDKRRGRDPEMGGKPRRKNPQEGLYNELQKDKMAEAYSEIGMKGERRRGKGHDGLYQGLSTATKDTYDALHMQALPPR
# notes: also called anti-DLL3 CAR with 3E10 scFv, on primary T cells
# Molecular target: T1, Flag tagged recombinant DLL3 (Adipogen)
# Assay: flow cytometry, percent of T cells that recognise recombinant DLL3, Donor 503
# Procedure: (§1) To determine the percentage of T cells that were successfully transduced with DLL3 CAR, T cells were first incubated with 1 ug/ml Flag tagged recombinant DLL3 (Adipogen) in PBS+1% BSA for 20 minutes at 4 C.
row,Binder,Transduction efficiency
1,B1,33.5%
2,B2,58.9%
3,B3,19.5%
4,B4,59.4%
5,B5,56.9%
6,B6,35%
7,B7,37.8%

# Molecular target: T1, Flag tagged recombinant DLL3 (Adipogen)
# Assay: flow cytometry, percent of T cells that recognise recombinant DLL3, Donor 772
# Procedure: as §1
row,Binder,Transduction efficiency
1,B8,0.98%
2,B1,16.9%
3,B9,0.14%
4,B3,13.8%
5,B4,26.7%
6,B10,0.43%
7,B11,0.43%
8,B5,25.2%
9,B6,14.2%
10,B7,24.8%
